This note sets out measurements from PMC10318527, “Utilization of dietary mixed-linkage β-glucans by the Firmicute Blautia producta” (The Journal of Biological Chemistry, 2023).

This experiment concerns the target BpGH94MLG, glycoside (cellodextrin) phosphorylase of CAZy family GH94 from Blautia producta ATCC 27340 (Blautia producta ATCC 27340). The experiment in a line: crystal structure; crystal structure of recombinant BpGH94MLG at 2.3 Å; two copies per asymmetric unit; crystallisation methods not shown (supplement).

Broadly, the stoichiometry N is the number of molecules, sites or subunits per partner or assembly.

Regarding “BpGH94MLG, glycoside (cellodextrin) phosphorylase of CAZy family GH94 from Blautia producta ATCC 27340 (enzyme)”, the stoichiometry N was determined as 2.
